Laboratory results from the Immune Epitope Database (IEDB).

Key:
[1] = molecular target: HLA-A*02:17; assay: IEDB peptide-MHC binding, purified MHC/competitive/radioactivity; filed as Kd, often an IC50 or EC50 that approximates it; ≥ and ≤ were set here for values at or beyond the usual limits of such assays
[2] = molecular target: HLA-A*02:01; assay: as above
[3] = molecular target: HLA-A*02:02; assay: as above
[4] = molecular target: HLA-A*68:02; assay: as above
[5] = molecular target: HLA-A*02:06; assay: as above
[6] = molecular target: HLA-A*02:03; assay: as above
[7] = molecular target: HLA-A*03:01; assay: IEDB peptide-MHC binding, purified MHC/competitive/fluorescence; filed as Kd, often an IC50 or EC50 that approximates it; ≥ and ≤ were set here for values at or beyond the usual limits of such assays
[8] = molecular target: HLA-A*32:01; assay: IEDB peptide-MHC binding, purified MHC/competitive/radioactivity; filed as Kd, often an IC50 or EC50 that approximates it; ≥ and ≤ were set here for values at or beyond the usual limits of such assays
[9] = molecular target: HLA-B*15:17; assay: IEDB peptide-MHC binding, purified MHC/direct/fluorescence; filed as Kd, often an IC50 or EC50 that approximates it; ≥ and ≤ were set here for values at or beyond the usual limits of such assays
[10] = molecular target: HLA-B*57:01; assay: as above
[11] = molecular target: HLA-B*58:01; assay: as above
[12] = molecular target: HLA-B*08:01; assay: IEDB peptide-MHC binding, purified MHC/competitive/radioactivity; filed as Kd, often an IC50 or EC50 that approximates it; ≥ and ≤ were set here for values at or beyond the usual limits of such assays
[13] = molecular target: HLA-B*15:01; assay: as above; conditions: source organism: Dengue virus 3 Sri Lanka/1266/2000
[14] = molecular target: HLA-B*08:02; assay: IEDB peptide-MHC binding, purified MHC/direct/fluorescence; filed as Kd, often an IC50 or EC50 that approximates it; ≥ and ≤ were set here for values at or beyond the usual limits of such assays
[15] = molecular target: HLA-B*08:01; assay: as above
[16] = molecular target: HLA-A*69:01; assay: as above; conditions: source organism: Mycobacterium tuberculosis
[17] = molecular target: HLA-B*07:02; assay: as above; conditions: source organism: Mycobacterium tuberculosis str. Haarlem
[18] = molecular target: HLA-B*39:01; assay: IEDB peptide-MHC binding, purified MHC/competitive/fluorescence; filed as Kd, often an IC50 or EC50 that approximates it; ≥ and ≤ were set here for values at or beyond the usual limits of such assays
[19] = molecular target: HLA-B*51:01; assay: as above
[20] = molecular target: HLA-B*15:01; assay: as above
[21] = molecular target: HLA-B*18:01; assay: as above
[22] = molecular target: HLA-B*57:01; assay: as above
[23] = molecular target: HLA-A*01:01; assay: IEDB peptide-MHC binding, purified MHC/competitive/radioactivity; filed as Kd, often an IC50 or EC50 that approximates it; ≥ and ≤ were set here for values at or beyond the usual limits of such assays; conditions: source organism: Dengue virus 1 Brazil/97-11/1997
[24] = molecular target: HLA-A*02:01; assay: IEDB peptide-MHC binding, purified MHC/competitive/fluorescence; filed as Kd, often an IC50 or EC50 that approximates it; ≥ and ≤ were set here for values at or beyond the usual limits of such assays
[25] = molecular target: HLA-B*35:01; assay: IEDB peptide-MHC binding, purified MHC/competitive/radioactivity; filed as Kd, often an IC50 or EC50 that approximates it; ≥ and ≤ were set here for values at or beyond the usual limits of such assays; conditions: source organism: Dengue virus 3 Singapore/8120/1995
[26] = molecular target: HLA-A*02:01; assay: IEDB peptide-MHC binding, purified MHC/direct/fluorescence; filed as Kd, often an IC50 or EC50 that approximates it; ≥ and ≤ were set here for values at or beyond the usual limits of such assays; conditions: source organism: Homo sapiens
[27] = molecular target: HLA-A*26:01; assay: IEDB peptide-MHC binding, purified MHC/competitive/fluorescence; filed as Kd, often an IC50 or EC50 that approximates it; ≥ and ≤ were set here for values at or beyond the usual limits of such assays; conditions: source organism: Homo sapiens
[28] = molecular target: HLA-B*27:03; assay: as above; conditions: source organism: Homo sapiens
[29] = molecular target: HLA-B*46:01; assay: as above; conditions: source organism: Homo sapiens
[30] = molecular target: HLA-A*69:01; assay: as above; conditions: source organism: Homo sapiens
[31] = molecular target: HLA-B*15:17; assay: as above; conditions: source organism: Homo sapiens
[32] = source organism: Dengue virus 2 Jamaica/1409/1983
[33] = source organism: Trypanosoma cruzi
[34] = source organism: Dengue virus 3 Sri Lanka/1266/2000
[35] = source organism: Dengue virus 3 Martinique/1243/1999
[36] = source organism: Dengue virus 3 China/80-2/1980
[37] = source organism: dengue virus type 4
[38] = source organism: Camelpox virus M-96
[39] = source organism: Dengue virus 1 Singapore/S275/1990
[40] = source organism: Dengue virus 1 Brazil/97-11/1997
[41] = source organism: Giardia lamblia ATCC 50803
[42] = source organism: Dengue virus 4 Philippines/H241/1956
[43] = source organism: Mycobacterium tuberculosis str. Haarlem
[44] = source organism: Human herpesvirus 5 strain Towne
[45] = source organism: Orthonairovirus haemorrhagiae
[46] = source organism: Vibrio parahaemolyticus AQ3810
[47] = source organism: Mycobacterium tuberculosis C

DLMCHATFTM
Kd [1, 32]: ≥ 70.4 µM | Kd [2, 32]: 0.209 µM

DTMRPTTVV
Kd [3, 33]: ≥ 28.9 µM | Kd [4, 33]: 0.00138 µM | Kd [5, 33]: 3.04 µM | Kd [6, 33]: 4.63 µM | Kd [2, 33]: ≥ 83.3 µM

ELADKVTKL
Kd ([3]; source organism: Homo sapiens): 0.0332 µM | Kd ([4]; source organism: Homo sapiens): 0.00318 µM | Kd ([5]; source organism: Homo sapiens): ≥ 38.8 µM | Kd ([6]; source organism: Homo sapiens): 0.114 µM | Kd ([2]; source organism: Homo sapiens): 2.51 µM

FAGKTVWFV
Kd [1, 34]: 0.293 µM | Kd [5, 35]: 0.0395 µM

FMMVLLIPEP
Kd [1, 36]: 5.73 µM | Kd [5, 35]: 0.124 µM | Kd [2, 36]: 0.0931 µM

FSFGDYFKH
Kd ([7]; source organism: Escherichia coli O157:H7 str. Sakai): ≥ 20 µM

GLLTVCYVL
Kd [1, 32]: 0.802 µM

KAYAQMWSL
Kd [5, 35]: 0.0272 µM | Kd [8, 35]: 0.0248 µM | Kd [9, 37]: 0.0013 µM | Kd [10, 37]: 0.0101 µM

KLIEGTNIW
Kd [9, 38]: 0.0679 µM | Kd [11, 38]: 0.0077 µM | Kd [10, 38]: 0.0705 µM

KLVMAFIAFL
Kd [1, 39]: 0.0224 µM | Kd [5, 40]: 0.0115 µM | Kd [2, 39]: 0.0289 µM

KTMAMVLSIV
Kd [4, 39]: 0.0525 µM | Kd [1, 39]: 2.86 µM | Kd [5, 39]: 0.00196 µM | Kd [6, 39]: 0.00118 µM | Kd [2, 39]: 0.0264 µM

LASSSYEQF
Kd [9, 41]: 0.0218 µM | Kd [11, 41]: 0.0365 µM | Kd [10, 41]: 0.189 µM

LLAGFMAYMI
Kd [1, 42]: 0.0457 µM | Kd [2, 42]: 0.00704 µM

LLLLVAHYA
Kd [1, 32]: 7.93 µM | Kd [2, 32]: 0.0519 µM

LLLLVAHYAI
Kd [1, 32]: 0.434 µM | Kd [5, 32]: 0.0534 µM | Kd [2, 32]: 0.0978 µM

LMMILPAAL
Kd [1, 34]: 0.0784 µM | Kd [12, 34]: 0.0181 µM | Kd [13]: 0.0136 µM | Kd [6, 34]: 0.0153 µM

LMMMLPATLA
Kd [1, 36]: 2.88 µM | Kd [6, 36]: 0.0175 µM | Kd [2, 36]: 0.0135 µM

LPAQLTATA
Kd [14, 43]: ≥ 20 µM | Kd [15, 43]: ≥ 20 µM | Kd [16]: 0.184 µM | Kd [17]: 0.441 µM

LPLKMLNIPSINVH
Kd [18, 44]: ≥ 20 µM | Kd [19, 44]: ≥ 20 µM | Kd [20, 44]: ≥ 20 µM | Kd [21, 44]: ≥ 20 µM | Kd [22, 44]: ≥ 20 µM

LTAAVLMLV
Kd [4, 40]: 0.0113 µM | Kd [1, 39]: 0.561 µM | Kd [23]: 17.7 µM | Kd [5, 40]: 0.0106 µM | Kd [6, 40]: 0.0118 µM | Kd [2, 39]: 0.00114 µM

MIRRRNQIL
Kd [14, 45]: 0.843 µM | Kd [15, 45]: 0.003 µM | Kd [24, 45]: ≥ 20 µM

MLWMADVPL
Kd [1, 36]: 0.00272 µM | Kd ([8]; source organism: Dengue virus 3 Singapore/8120/1995): 0.0291 µM | Kd [25]: 0.658 µM | Kd [2, 36]: 0.00116 µM

QLAFFVAGK
Kd ([7]; source organism: Escherichia coli K-12): 0.0128 µM

QTWKPDDVL
Kd [9, 46]: 0.73 µM | Kd ([11]; source organism: Vibrio parahaemolyticus): ≥ 20 µM | Kd [10, 46]: ≥ 20 µM

RVDEIILFH
Kd ([7]; source organism: Trichodesmium erythraeum IMS101): 0.073 µM

RWFFRPLRK
Kd ([7]; source organism: Entamoeba dispar SAW760): 0.125 µM

TLLLLGLMIL
Kd [1, 36]: 2.42 µM | Kd [12, 35]: 0.89 µM

VLIRRCHYL
Kd [26]: 0.0015 µM | Kd ([18]; source organism: Homo sapiens): ≥ 20 µM | Kd ([19]; source organism: Homo sapiens): ≥ 20 µM | Kd [27]: ≥ 20 µM | Kd [28]: ≥ 20 µM | Kd ([20]; source organism: Homo sapiens): ≥ 20 µM | Kd ([21]; source organism: Homo sapiens): ≥ 20 µM | Kd [29]: ≥ 20 µM | Kd [30]: ≥ 20 µM | Kd [31]: ≥ 20 µM | Kd ([22]; source organism: Homo sapiens): ≥ 20 µM

VLLKTALLIV
Kd [1, 36]: 2.49 µM | Kd [5, 35]: 0.037 µM | Kd [6, 35]: 0.0401 µM

VSDFRKEFY
Kd ([18]; source organism: Homo sapiens): ≥ 20 µM | Kd ([19]; source organism: Homo sapiens): ≥ 20 µM | Kd [27]: ≥ 20 µM | Kd [28]: ≥ 20 µM | Kd ([20]; source organism: Homo sapiens): ≥ 20 µM | Kd ([21]; source organism: Homo sapiens): ≥ 20 µM | Kd [29]: ≥ 20 µM | Kd [30]: ≥ 20 µM | Kd ([24]; source organism: Homo sapiens): ≥ 20 µM | Kd ([22]; source organism: Homo sapiens): ≥ 20 µM

WMTTEDMLTV
Kd [1, 36]: 2.24 µM | Kd [5, 35]: 0.00859 µM | Kd [6, 35]: 0.0375 µM | Kd [2, 36]: 0.0136 µM

YLRRRQKAL
Kd [14, 47]: 1.31 µM | Kd [15, 47]: 0.01 µM

YSKVKLLGL
Kd ([14]; source organism: Kurkino virus): 0.512 µM | Kd ([15]; source organism: Orthohantavirus dobravaense): 0.0525 µM
